Reference: PMC8224366

What was measured:
[1] = target: EPN-Fos-C (EPN monomer with the Fos domain at the C-end; prokaryotic construct pET-EPN-Fos-C) (HIV | not stated)
[2] = target: EPN-Fos-M (EPN monomer with the Fos domain between the Interaction domain and the Late budding domain; prokaryotic construct pET-EPN-Fos-M) (not stated | HIV)
[3] = target: EPN-p6 (enveloped protein nanocage monomer with the p6 domain; prokaryotic construct pET-EPN-His-p6) (HIV)

Substance “NanoLuc-Jun (NanoLuc luciferase fused with the Jun leucine zipper domain)” has a NanoLuc, molecules in a single nanocage, in EV C (estimated from luciferase assay and the EPN/NanoLuc molar ratio by MS/MS) (molecules in a single nanocage) [1] of 15, a NanoLuc, molecules in a single nanocage, in EV C(lenti) (estimated from luciferase assay and the EPN/NanoLuc molar ratio by MS/MS) (molecules in a single nanocage) [1] of 40 and a NanoLuc, molecules in a single nanocage, in EV M (estimated from luciferase assay and the EPN/NanoLuc molar ratio by MS/MS) (molecules in a single nanocage) [2] of 21.

Work on “NanoLuc-Vpr (NanoLuc luciferase fused with HIV viral protein R) (from UniProt P69726 1-96)” yielded a NanoLuc, molecules in a single nanocage, in EV p6 (estimated from luciferase assay and the EPN/NanoLuc molar ratio by MS/MS) (molecules in a single nanocage) [3] of 1.5.
